This series has as its target GST-NS5 (Zika virus, UniProt A0A1B0XTC8 2521-3423). As to the kind of experiment: EMSA. (In general: A gel shift assay detects complexes by their altered migration in electrophoresis.)

B1: genomic Sox2 DNA duplex (dsDNA)
DNA 1: TCAGCAAGCGCCTGGGCGCCGAGTGGAAACTTTTG
DNA 2: CAAAAGTTTCCACTCGGCGCCCAGGCGCTTGCTGA
As to B1, the binding result is listed as “binds”.

(Values after publication PMC9894162.)
